We go through 1 substance from publication PMC8205142.

The assay addresses recombinant venestatin (Strongyloides venezuelensis). The experiment in a line: ELISA; r-venestatin (4 ug/mL) coated on wells; RAGE or TLR4 (0-4 ug/mL) in buffer A (50 mM Tris-HCl pH 7, 10 mM NaCl, 5 mM CaCl2), ambient temperature, 1 h; detected with anti-RAGE or anti-TLR4 antibodies; KD by Scatchard plot. For orientation: In an ELISA, binding on a coated surface is turned into a signal by an enzyme label.

A word on the Kd: it is the equilibrium constant for the complex coming apart. Consider “recombinant human RAGE (receptor for advanced glycation end products) (from UniProt Q15109 23-342)”, for which the Kd came to 43.6 nM.
